Reference: patent US20220332804A1 (CSL INNOVATION, published 2022)
Substitutions are numbered along the chain they refer to.

Experiments:
Assay in all cases: SPR, antibody captured, C2 as analyte;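 note: biacore SPR at 37 °C, anti-C2 mAbs captured via goat anti-human IgG on CM5 chips, double-referenced sensorgrams fit to a 1:1 kinetic or steady-state model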
human C2 Q447A = biological target: T1, human C2 Q447A (human, UniProt P06681 21-752)
T1 sequence: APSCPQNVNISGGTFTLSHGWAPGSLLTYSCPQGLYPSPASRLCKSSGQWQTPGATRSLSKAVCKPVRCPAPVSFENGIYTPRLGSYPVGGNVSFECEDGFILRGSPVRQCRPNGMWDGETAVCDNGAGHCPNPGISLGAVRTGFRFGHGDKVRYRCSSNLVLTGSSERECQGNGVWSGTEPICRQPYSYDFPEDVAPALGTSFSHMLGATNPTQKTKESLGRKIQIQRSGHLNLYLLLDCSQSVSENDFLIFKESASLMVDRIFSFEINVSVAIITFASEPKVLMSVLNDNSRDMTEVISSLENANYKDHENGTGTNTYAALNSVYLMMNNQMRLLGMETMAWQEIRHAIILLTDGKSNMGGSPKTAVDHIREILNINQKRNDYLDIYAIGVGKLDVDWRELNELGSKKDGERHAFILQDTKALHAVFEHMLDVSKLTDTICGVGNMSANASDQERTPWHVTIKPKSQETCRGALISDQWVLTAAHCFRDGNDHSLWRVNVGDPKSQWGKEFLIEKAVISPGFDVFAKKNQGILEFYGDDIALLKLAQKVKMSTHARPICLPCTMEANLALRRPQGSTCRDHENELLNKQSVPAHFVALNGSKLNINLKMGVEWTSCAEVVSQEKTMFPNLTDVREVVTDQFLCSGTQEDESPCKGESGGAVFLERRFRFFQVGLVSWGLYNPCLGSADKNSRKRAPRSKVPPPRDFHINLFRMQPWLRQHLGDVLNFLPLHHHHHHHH

human C2 L279A = biological target: T2, human C2 L279A (human, UniProt P06681 21-752)
T2 sequence: T1 sequence with L259A, A427Q

human C2 K531A = biological target: T3, human C2 K531A (human, UniProt P06681 21-752)
T3 sequence: T1 sequence with A427Q, K511A

human C2 K415A = biological target: T4, human C2 K415A (human, UniProt P06681 21-752)
T4 sequence: T1 sequence with K395A, A427Q

B1: RF16-226 (antibody, human IgG4 S228P, lambda)
heavy: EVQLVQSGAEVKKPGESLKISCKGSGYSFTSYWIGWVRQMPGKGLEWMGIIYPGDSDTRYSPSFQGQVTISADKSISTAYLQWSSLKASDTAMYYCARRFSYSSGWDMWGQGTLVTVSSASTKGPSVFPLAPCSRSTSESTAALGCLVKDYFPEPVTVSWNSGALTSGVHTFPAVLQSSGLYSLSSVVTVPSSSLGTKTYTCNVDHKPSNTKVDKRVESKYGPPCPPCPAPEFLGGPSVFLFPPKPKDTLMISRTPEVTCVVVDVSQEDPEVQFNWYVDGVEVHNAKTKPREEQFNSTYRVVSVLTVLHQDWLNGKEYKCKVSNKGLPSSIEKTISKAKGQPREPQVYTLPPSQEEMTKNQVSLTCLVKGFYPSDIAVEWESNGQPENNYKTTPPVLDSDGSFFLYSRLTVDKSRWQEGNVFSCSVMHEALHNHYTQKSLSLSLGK
light: SYELTQPPSVSVSPGQTARITCSGDALTSKYVAWYQQKSGLAPLLVIYEDTRRPSGIPAKFSGSSSGSVATLTISGAHGDDEADYYCYSTDASGHQRVFGGGTKLTVLSQPKAAPSVTLFPPSSEELQANKATLVCLISDFYPGAVTVAWKADGSPVKAGVETTKPSKQSNNKYAASSYLSLTPEQWKSHRSYSCQVTHEGSTVEKTVAPTECS
notes: pH-dependent anti-C2 antibody from a phage display library; also called WT
Kd (human C2 Q447A): 5.4 nM | Kd (human C2 L279A): 54.4 nM | Kd (human C2 K531A): 12.1 nM | Kd (human C2 K415A): 11.7 nM
